Assay results as given in publication PMC6901265 (2019).

Tests used:
[1] = target: T1, EBV BRLF1 peptide on HLA-A*02:01 (human); assay: multimer staining
T1 peptide: YVLDHLIVV

[2] = target: T2, tyrosinase peptide on HLA-A*02:01 (human); assay: activation reporter or marker
T2 peptide: YMDGTMSQV

B1: WT TCR AV8.1-CAVKDTDKLIF-AJ34 BV24.1-CATSDWDDSTGELFF-BJ2.2 (TCR)
alpha AV8.1 AJ34 CDR3: CAVKDTDKLIF
beta BV24.1 BJ2.2 CDR3: CATSDWDDSTGELFF
binding result [1]: recognises | binding result [2]: no recognition
